Consider 19 sequences from a protein production outcome set (Wang et al. 2014).

The data set is described as follows: label from the status in PepcDB records.
As to “MFYGRYDYPTGKFLWGNLRYQRVSEYNLQTFLNMKNSKLREEQIMSAKRDYYEVLGVSRDADKNTIKKAYRKLAKKYHPDTNQGNAQAAERFKEATEAYNILSDPEKKKMYDQFGHAAFDGSGAAGGAYGGAYSRNGGGTYQYAGPDGTFHEYHFEGNGDMDDFLKNIFGGSFGGFGGATRSSSKGSRSGFSGSGFGRSGFGGTGFSGSGFGGSGFSGSGFGESGSYGNYSQGGADVTAEITVGFDEAAFGCEKVIHLTENNGKAVGKALKVKIPAGIDTGKSIRLRGKGNPGINGGKAGDLLLKVKVASKPGYERKGMDVYTTVRVPFTTAVLGGEAKVETLHGNVLCKINPGTQSGTKIRLRGKGIVSMKDKNQHGDQYVTVQIDVPGNLSEEAKRKLREFEVACKKGQQGVA”, the protein production entry was “failed”.

Regarding “MKKKMITALGVSAIILTNFVGSTYADSKIGVSVTAPYNKNQIAEWLEMHAKPLKTTNPNAPFNDLKPFKNMVGSASIVGLGEATHGAHEVFTMKNRIVNYLVSEKGFTNLVLEEGWDRALELDRYVLTGEGNPSQHLSPVFKTKEMLDLLNWIRQYNANPKHKSKVRIIGMDIQSVNENVYNNIIEYVKRTNSKLVPRIEEKIKGLIPVTKDMNTFESLTKEEKEKYISDAKQISAVLEENKSYLNGKSKEFAWIKQNARIIEQFTTMLTSPPDKPSDLFLKHDIAMYENAKWTEEHLGKTIVWGHNGHVSKTNMLPFVYPKVAGQYLAEYYGKRYVSIGTSVYEGQYNVKNSDGEFGPYGILKSDDPNSYNYIFGQVKKDQFFIDLRKANGVTKNWLNEQHPIFAGVTTEGPGIPKTVDISLGKAFDILVQIQKVSPSQLHQLEHHHHHH”, the protein production result was “failed”.

For “MKEKVVIITGGSSGMGKGMATRFAKEGARVVITGRTKEKLEEAKLEIEQFPGQILTVQMDVRNTDDIQKMIEQIDEKFGRIDILINNAAGNFICPAEDLSVNGWNSVINIVLNGTFYCSQAIGKYWIEKGIKGNIINMVATYAWDAGPGVIHSAAAKAGVLAMTKTLAVEWGRKYGIRVNAIAPGPIERTGGADKLWISEEMAKRTIQSVPLGRLGTPEEIAGLAYYLCSDEAAYINGTCMTMDGGQHLHQYPF”, the protein production result is “not failed”.

In the case of “MNSVYFLNVSEALATPQDKLHTVRLFGTVAADGLTMLDGAPGVRFRLEDKDNTSKTVWVLYKGAVPDTFKPGVEVIIEGGLAPGEDTFKARTLMTKCPLEHHHHHH”, the protein production entry was “failed”.

Take “LGVVPEVRDWFTLGDHRFLVMDFLEGRPLNSFFAERHPLLTPDPEPDAVAAYTAWALRIHRAVEQAVHAVHARGIVFNDLHVFNIMVAPDEESVSLLDFEAAAPIEEN”: the protein production result is listed as “failed”.

Turning to “MNLEKHASPDSVIVIDDLLPQHMDYASRQRNTTIWTGDVYRLVPILRHYRPDLDIRVYDVDMKGFGLVTRLDPSSDVLAGNYGAIEADILAGKWSFPTAAAIRDHMQPRATDLLANDLGIIAARRTAKASKQSDRRAAPALPQRRPRLSVIICAYDMAREAPRTILSATAPYQKGLKEDEYEVIVVDNGSSTPLTYDNLPPNAQIVRAPDPRQSPVFALNWAAREIAKGEILLFAIDGARIFSERLIDETVKAHDRMEDAFVFSLSWHIGPKVQMQSVPEGYGAEIEDGLIRAVRWPDESDGLFGISVLAGSSSNGFFGDITESNSFSISRTLFDRHGGFDERFTSPGGGLANLEIFRRYVTRPDARNVCLLSEGTFHQVHDSVATSGKNRWEAFASEYEAIFGGPYLRPSYHCFYQGKPRAGMVPFILQSLQG”, the protein production entry is reported as “failed”.

Take “MGHHHHHHSHMIDSIRVEGFRGLKELELSSLRRINVIVGRNNSGKSTLLEALSLFLGSSDPGTFGNVLHEILIWRGWYGIQTVDDLFYNGGDSFSISSTGKTLEALNSKHSLEFKLNGEPFYKIDRESIRRLASQAVLLARFSPKENFEFLTPLTFRRFGYAESLYSYAYERKVVKDSIKVLNEAYPEVEGFSPLLKEDNWVLYVETKYGVYPYYLMGEGFKSAMIISFLSSLLRDGVLLIDSAEAFHHP”: the protein production result is “failed”.

As to “MKGRLLQRLRQLSISNSLRGAFLTGALLTLIVSMVSLYSWHEQSSQVRYSLDEYFPRIHSAFLIEGNLNLAVDQLNEFLLAPNTTVRLQLRTQIIQHLDKIERLSQGLQLAERRQLAVILQDSRTLLAELDNALYNMFLVREKVSELSARIDWLHDDFTTELNSLVQDFTWQQGTLLDQIEANQGDAAQYLQRSREVQNEQQQVYTLARIENQIVDDLRDRLNELKSGNNDGMLVETHIRYLENLKKTADENIRALDDWPSTITLRQTIDELLEIGMVKNKMPDTMRDYVAAQKALLDASRAREATLGRFRTLLEAQLGSSHQQMQTFNQRLEQIVRVSGGLILVTTLLALLLAWGLNHYFIRSRLVKRFTALNQAVVQIGLGRTDSTIPVYGRDELGRIARLLRHTLGQLNMQRRQLEQEVAERKEIEADLRAMQDELIQTAKLAVVGQTMTTLAHEINQPLNALSMYLFTAGRAIEQGQSGQARNTLTKAEGLINRIDAIIRSLRQFTRRAELETPLYPVDLRQTFVAAWELLAMRHQSRQGALSLPTDTVWVSGDEVRIQQVLVNVLANALDACSHDAAIAVTWQTQGEALEVYIADNGPGWPGALLPSLLKPFTTSKAVGLGIGLSISVSLMAQMKGDLRLASTLTRNACVVLQFSVTDVDDVE”, the protein production result is given as “failed”.

As to “MAIAHTYRRYLDYLRQDRGLAKNSLLVYGPFIRDFLDSHSAGDGSLLPDAFDAVTIRNHLLARSKGRSAEYTRLMAVALRSFCHFLFLRGDTARDLAGSVLEHHHHHH”, the protein production result was “failed”.

“MQREKVDVLVIGAGPAGTVAASLVNKSGFKVKIVEKQKFPRFVIGESLLPRCMEHLDEAGFLDAVKAQGFQQKFGAKFVRGKEIADFNFSDQFSNGWNWTWQVPRGNFDKTLADEAARQGVDVEYEVGVTDIKFFGTDSVTTIEDINGNKREIEARFIIDASGYGRVIPRMFGLDKPSGFESRRTLFTHIKDVKRPVAAEMEGNRITAVVHKPKVWIWVIPFSNGNTSVGFVGEPSYFDEYTGTPEERMRAMIANEGHIAERFKSEEFLFEPRTIEGYAISASKLYGDGFVLTGNATEFLDPIFSSGATFAMESGSKGGKLAVQFLKGEEVNWEKDFVEHMMQGIDTFRSFVTGWYDGTLHAVFFAKNPDPDHKRMICSVLAGYVWDKNNPFVKKHNTILKTLAKVIQMGEEALEHHHHHH”: the protein production result is reported as “not failed”.

“MFRWERSIPLRGSAAALCNNLSVLQLPARNLTYFGVVHGPSAQLLSAAPEGVPLAQRQLHAKEGAGVSPPLITQVHWCVLPFRVLLVLTSHRGIQMYESNGYTMVYWHALDSGDASPVQAVFARGIAASGHFICVGTWSGRVLVFDIPAKGPNIVLSEELAGHQMPITDIATEPAQGQDCVADMVTADDSGLLCVWRSGPEFTLLTRIPGFGVPCPSVQLWQGIIAAGYGNGQVHLYEATTGNLHVQINAHARAICALDLASEVGKLLSAGEDTFVHIWKLSRNPESGYIEVEHCHGECVADTQLCGARFCDSSGNSFAVTGYDLAEIRRFSSV”: the protein production result is recorded as “failed”.

Turning to “MKKVFIPINTKIPVERQFPNRVPIWGNYEFIISTKEPEQEYDYVVVLDDIEYSLRLMCCKQNICLFTGEPPYVKLYPRKYLNQFGHVYTCQSSVLKRDNACLSYPALPWMLYYNFYNDKQKEELLIDYDFLKNRPTLQRKNKICLFTSNKKISKGHIERIKFALKLQEEMPDLIDIYGSGFTNVDYKYEVMVQYKYAIVIENCSYPYYWTEKLADTFLSGCYPIYFGDPHIGDFFSKEEMAVIDIRNFDESKQTIKKIIDNNVYEKQYENICHARDKILDKYNMFSLISSTLDSIPAKLDKEKLLLSPMRLSVFDRIRNRIYRLFYLEHHHHHH”, the protein production result is given as “failed”.

For “MNLLYMVLIGQIILFLIGAMYAIGQTKKTRNNMPLPLAVRLILSFSLTASAIWIWLQDPSVDYSTWVALGMTLSTVGDLFMAGLIPIGHRLIGGMITFALAHCFYVKAFLQTGISWNGFWIGLLVYGLFLIIGWFFFIRNEKQDKLFTIGALIYGLWVGGMACFAFALYYENTGIWWIPAFGGLLFVISDFIIGVTDIGGRKLKYEPLWIWFTYVAAQMCIVYVGI”, the protein production entry is recorded as “failed”.

As to “VWWQLHYGPHPDERELDLEGWTTRVLDATRDAVAIRQRAAVDVGVLLSGGVDSSLLVGLLREVGVDDLSTFSIGFEDAGGERGDEFQYSDLIAKHYGTRHHQLRIAEHEIIDQLPAAFRAMSEPMVSHDCIAFYLLSREVAKHCKGVQSGQGADELFAGYHWYPQVDGADDAYAAYREAFFDRSHAEYRDTVQAPWLLETDAAGDFVREHFARPGAPAAVDKALRLDSTVMLVDDPVKRVDNMTMAWGLEARTPFLDYRLVELSARIPARFKLPDGGKQVLKQAARRVIPHEVIDRKKGYFPVPGLKHLEGATLGWVRELLTDPSQDRGLFNPTMLDRLLSNPHGQLTPLRGSKLWQLAALNLWLS”, the protein production entry is “failed”.

With “MPLPSLKDQFGALIAASSVSCTQPELDQTNRPVVDLLASWLGDLGFRCEIREVSPGKFNLLASYGSGPGGLVLAGHTDTVPYDEALWSSDPLRLDERDGRWYGLGSCDMKGFFPLAIEALLPLLDQPFRQPLMILATCDEESSMAGARALAESGRPLGRATVIGEPTNLRPIRLHKGVMMERIEILGQSGHSSDPNLGRSALEAMHATIGELMALRGEWQRAWNNPQFSVPQPTLNFGCIHGGDNPNRICGQCSLEFDLRPLPGMQPKQLREAIRQRLRPLAERHQVSIDYQPLFPAVPPFEQAQDSELVRVAERLTGHRAEAVAFGTEAPYFQRLGSETLVLGAGDIACAHQPDEHLELARIEPMVGVLRRLIQHYCLTPAAD”, the protein production entry is reported as “failed”.

With “MEYYFTAQKLAVGYDNRPLIENIDFSLKRGEILTLIGPNGAGKSTILKSIARQLSLVSGTIYLDKSDVVTMNGNEFAKKMAVVLTDKLKTELMTCYDVVATGRYPYTGRFGVLSDEDKKAVDEAMELVNVSQIKDKDFTKISDGQRQRVMLSRAICQQPEIIVLDEPTSYLDIKYKLEFLSILQRLKRQKNLTVIMSLHELDMAKRVSDHILCIDGRYVDRYGTPEEVFTDQYVSGLFGITAGSFDETGEDLELEKPDGSARIFVIAGGGLGRKSFRSLQRKGIPFATGIIYENDLDYPAAKALSAEIVSARSFEPVDDALIEKAKELIDACEGVICDRTEFGTYEQFNSRLYEYAVSTGKIIKIPFLEEQLAQL”, the protein production result is reported as “failed”.

For the sequence “MTSAAMATAYFDKGNQCAARCDWLGAIEAFDHCLSLNPRDWQALANRGNAKVQREDLSGALEDYLAAAALNPSSCNIKSNLAVLLKELGELDLAAALLEEVLAAEPAHVDAWSNLGIVRQHQRRYQDAIACQQNALAIAGPSVARYSNLGNAYSCALMLDAAIEVQRKGLELAPDDANLQFNQSITLLTAGRYAEAWPLYEARWRSVLRPRLTQKRWQGEALGERTLLLWSEQGLGDSLQMVRLLSCLRRAHPQARLLLACPVSFHRLFAQFDGVSLLPADALPEHDCQLPLMSLPWLLGITLDNLPTEPYLRVPGGMVPPLPAASRRRVGVVWESGLWGVGVADLGRQHKSIPAGLFAEICRVPGIEFIALQPGGVPAELSDWVRACPISDFADTAALAAQMDLVICVDTAILHLAGAMGRPVWALLRAESAPFFLADAETAPWYPSVKLWRQPAPGAWEPMLKQIAEALAGRQTF”, the protein production result was “failed”.

Take “MSNANQKITTFLMFEGKAEEAMNFYTSLFDQSEIVSISRYDENGPGKEGTVIHATFTLNGQEFMCIDSYVNHNFTFTPAMSLYVTCETEEEIDTVFHKLAQDGAILMPLGSYPFSKKFGWLNDKYGVSWQLTLAE”: the protein production result was “not failed”.

Take “MYVTTGTNDILLTINDYVNKETASYQLTDISNNTLISEIIEKIKVLKNYTYSSTDLVLYFARVECKLSEKLSTYNKSNRKTIKLELYLSKLITINVRTLQSCGTGTSRCIPFWSFCFRQNIKIKIIDTCEVRVLKQKIYNLTDESTSIPVENIVLLYKGAPLNNFLTLKESELIDNCRIDYFVPLCYIYKKKKEESDEDEDENEEKLKEHTKSEDKKVDTQQNENVKSENVNNENVKNENVNNENVKNENVNNENVNNENVNIENVKNDNNDNAKKC”: the protein production result is recorded as “failed”.
